Results reported in patent US20180021429A1, “ANTICANCER AGENTS OR ANTIMETASTATIC AGENTS USING FSTL1 AND COMBINATION DRUG THEREOF” (PHARMA FOODS INTERNATIONAL CO., LTD., priority 2015, published 2018).
“Also recorded” adds a separate entry of the source.

T1: FSTL1 (Homo sapiens, UniProt Q12841)
T1 sequence (Q12841 21-308): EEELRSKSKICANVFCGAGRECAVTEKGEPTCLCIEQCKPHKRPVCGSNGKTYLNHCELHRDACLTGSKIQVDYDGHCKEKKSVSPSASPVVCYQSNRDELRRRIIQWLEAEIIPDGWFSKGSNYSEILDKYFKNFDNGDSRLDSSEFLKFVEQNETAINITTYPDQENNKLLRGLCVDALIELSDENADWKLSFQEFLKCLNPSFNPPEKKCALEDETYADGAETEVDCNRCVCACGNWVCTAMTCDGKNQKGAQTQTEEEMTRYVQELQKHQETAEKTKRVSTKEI


Legend:
FSTL1 [1] = target: T1, FSTL1; experiment: Inhibition of MSC induction by FSTL1 in mouse bone marrow cells, CD45-negative cells (Examples 6, 8, 12); format: cell-based; parameters: purchased R&D Systems, Inc. 1694-FN-050; conditions: antibody 10 μg/mL
Protocol: Mouse bone marrow cells prepared in the same way as in Example 4 were supplemented with 50 ng/mL (final concentration) of FSTL1 and 10 μg/mL of the anti-FSTL1 antibody (#5-2, #5-3, #5-8, #5-10, 45-43, #6-55, or #7-34) or a control antibody anti-DNP antibody and cultured under stimulation. 11 days thereafter, the number of cells was counted while the cells were stained with a PE-Cy5-labeled anti-CD45 antibody (BD Pharmingen/Becton, Dickinson and Company, Cat. No. 555484), and the content of CD45− negative cells reported to generally contain MSCs at a high rate was analyzed by flow cytometry using FACScan to calculate the percentage and number of MSCs per culture (FIG. 67A).
(§1) Mouse bone marrow cells prepared in the same way as in Example 4 were supplemented with 20 ng/mL (final concentration) of FSTL1 and 10 μg/mL of the anti-FSTL1 antibody (#5-2, #5-3, #5-8, #5-10, #5-43, #6-55, #8-1, #8-4, #8-7, and #8-8) or a control antibody anti-DNP antibody and cultured under stimulation. 8 days thereafter, the number of cells was counted while the cells were stained with a PE-Cy5-labeled anti-CD45 antibody, and the content of CD45− negative cells was analyzed by flow cytometry using FACScan to calculate the percentage and number of MSCs per culture (FIG. 68A).
as §1, with “(#5-2,” for “(#5-2, #5-3,”, “#5-8,” for “#5-8, #5-10, #5-43,”, “#6-55, #7-34,” for “#6-55,”, “#8-7, or” for “#8-7, and”, “(FIG. 69).” for “(FIG. 68A).”

FSTL1 [2] = target: T1, FSTL1; experiment: Inhibition of activation of tumor cells by FSTL1, RANKL- and CCR2-positive cells in human pancreatic cancer cell line Panc1 (Examples 5, 7, 9, 10, 11); format: cell-based; parameters: purchased R&D Systems, Inc. 1694-FN-050; conditions: for inhibitory activity against the expansion of RANKL-positive cells and CCR2-positive cells: FSTL1 50 ng/mL
Protocol: It is known that tumor cells activated by stimulation with FSTL1 highly express molecule groups promoting bone metastasis and increase metastatic invasive capacity (Cancer Research 73: 6185, 2013). Thus, 2×10^7 cells/well of a human pancreatic cancer cell line Panc1 were suspended in 1 mL/well of D-MEM medium (GIBCO/Thermo Fisher Scientific Inc. Cat. No. C11885500BT) containing 10% fetal bovine serum, supplemented with 50 ng/mL (final concentration) of FSTL1 (R&D Systems, Inc.) and 10 μg/mL of the anti-FSTL1 antibody (#5-2, #5-8, #5-10, #5-43, #6-55, or #7-34) or its isotype mouse IgG (anti-DNP antibody) as a control antibody “Control”, and cultured under stimulation (6-well plate). 3 days thereafter, the number of cells was counted while the cells were stained with a PE-labeled anti-RANKL antibody (eBioscience Cat. No. 12-6619) and a PE-labeled anti-CCR2 antibody (R&D Systems, Inc. Cat. No. FAB151P) in order to examine the expression of markers indicating bone metastatic properties, and the contents of RANKL-positive cells and CCR2-positive cells were analyzed by flow cytometry using FACScan (Becton, Dickinson and Company) to calculate the numbers of cells per culture. […] Therefore, in Examples below, judgment was made with the number of cells as an index.
(§2) In the same way as in Example 5, a human pancreatic cancer cell line Panc1 was supplemented with 50 ng/mL (final concentration) of FSTL1 (R&D Systems, Inc.) and 10 μg/mL of the anti-FSTL1 antibody (the same clones as in Example 6) or a control antibody and cultured under stimulation. 3 days thereafter, the number of cells was counted while the cells were stained with a PE-labeled anti-RANKL antibody and a PE-labeled anti-CCR2 antibody, and the contents of RANKL-positive cells and CCR2-positive cells were analyzed by flow cytometry using FACScan (Becton, Dickinson and Company) to calculate the numbers of cells per culture (FIG. 67B).
as §2, with “20” for “50”, “FSTL1” for “FSTL1 (R&D Systems, Inc.)”, “(#5-2, #5-8, or #6-55)” for “(the same clones as in Example 6)”, “68B).” for “67B).”
as §2, with “FSTL1” for “FSTL1 (R&D Systems, Inc.)”, “(#5-2, #5-3, #6-55, #7-34, #8-1, #8-4, #8-7, or #8-8)” for “(the same clones as in Example 6)”, “culture.” for “culture (FIG. 67B).”
as §2, with “FSTL1” for “FSTL1 (R&D Systems, Inc.)”, “(#6-55)” for “(the same clones as in Example 6)”, “culture.” for “culture (FIG. 67B).”

[3] = Example 6, FSTL1 50 ng/mL, 11 days
[4] = Example 8, FSTL1 20 ng/mL, 8 days
[5] = Example 12, FSTL1 20 ng/mL, 8 days

Row | Molecule | inhibitory activity against the expansion of CD45-negative cells by FSTL1 (FSTL1 [1]; [3]) | inhibitory activity against the expansion of CD45-negative cells by FSTL1 (FSTL1 [1]; [4]) | inhibitory activity against the expansion of CD45-negative cells by FSTL1 (FSTL1 [1]; [5]) | other results
1 | #5-43: chicken-mouse chimeric anti-FSTL1 antibody clone; variable regions SEQ ID NO: 779 (light), 781 (heavy) (antibody, V domains shown, mouse constant regions) VH: AVTLDESGGGLQTPGGGLSLVCKGSGFTFSSFNMFWVRQAPGKGLEWVAGIGKDGGTGYGAAVDGRATISKDSGQSTLRLQLNNLRAEDTGTYYCAKAAGGCSYDWCGAYTGDIDTWGHGTEVIVSS VL: ASTQPSSVSANPGEAVKITCSGGSGSYYGWYQQKSPGSAPVTVIYNNNQRPSDIPSRFSGSKSGSTATLTITGVQAEDEAVYFCGGYDSSTGHGGIFGAGTTLTVL | higher inhibitory activity and substantially completely inhibited the action of FSTL1 | Inhibitory activity was confirmed; also recorded: exhibited inhibitory activity | – | –
2 | #5-3: chicken-mouse chimeric anti-FSTL1 antibody clone; variable regions SEQ ID NO: 767 (light), 769 (heavy) (antibody, V domains shown, mouse constant regions) VH: AVTLDESGGGLQTPGGALSLVCKGSGFSFSSFNMFWVRQAPGKGLEWVAGIGKDGVPKYGAAVDGRATISKDNGQSTMRLQLNNLRAEDTGTYFCAKAAGGCSYDWCGIYAGDIDTWGHGTEVIVSS VL: ASTQPSSVSANPGETVKITCSGGSGYYYGWYQQKSPGSVPVTVIYNNNNRPSDIPSRFSGSKSGSTGTLTITGVRAEDEAVYYCGGYDNSGTGIFGAGTTLTVL | higher inhibitory activity and substantially completely inhibited the action of FSTL1 | – | – | inhibitory activity against the expansion of RANKL-positive cells and CCR2-positive cells (FSTL1 [2]; Example 7, antibody 10 μg/mL, 3 days): higher inhibitory activity
3 | #8-1: chicken-mouse chimeric anti-FSTL1 antibody clone; variable regions SEQ ID NO: 791 (light), 793 (heavy) (antibody, V domains shown, mouse constant regions) VH: AVTLDESGGGLQTPGGALSLVCKGSGFTFSSFNMFWVRQAPGKGLEWVAGIGKDGVPKYGAAVDGRATISKDNGQSTMRLQLNNLRAEDTGTYFCAKAAGGCSYDWCGIYAGDIDTWGHGTEVIVSS VL: ASTQPSSVSANPGEAVKITCSGGSGSYYGWYQQKSPGSAPVTVIYNNNQRPSDIPSRFSGSKSGSTATLTITGVQAEDEAVYFCGGYDSSSGHGGIFGAGTTLTVL | – | Inhibitory activity was confirmed; also recorded: exhibited inhibitory activity | – | –
4 | #6-55: chicken-mouse chimeric anti-FSTL1 antibody clone; variable regions SEQ ID NO: 783 (light), 785 (heavy) (antibody, V domains shown, mouse constant regions) VH: AVTLDESGGGLQTPGGALSLVCKGSGFTFTSVTMQWVRQAPGKGLEWVASVCSGSSTYYAPAVKGRATISRDNGQSTVRLQLSNLRPEDTGTYYCAKIAGRARWSCTSAAYNIDAWGHGTEVIVSS VL: ASTQPSSVSAIPGETVKITCSGGGNNYGWYQQRSPGSAPVTVIYYNDNRPSNIPSRFSGSTSGSTSTLTITGVQADDEAIYYCGSWDSNTDSGIFGAGTTLTVL | – | Inhibitory activity was confirmed; also recorded: exhibited inhibitory activity | higher inhibitory activity was confirmed in the order of #7-34, #5-2, #6-55, and #8-7 | inhibitory activity against the expansion of RANKL-positive cells and CCR2-positive cells (FSTL1 [2]; Example 10, antibody 10 μg/mL, 3 days, including newly obtained clones): higher inhibitory activity; also recorded: high inhibitory activity; inhibition of cell induction of RANKL-positive cells and CCR2-positive cells (dose dependence test) (FSTL1 [2]; Example 11, figure legend): strongly inhibited the cell induction of both RANKL-positive cells and CCR2-positive cells; inhibitory activity against the expansion of RANKL-positive cells and CCR2-positive cells (FSTL1 [2]; Example 11, all tested doses 5, 10 and 20 μg/mL, dose dependence not confirmed): ~100%
5 | #7-34: chicken-mouse chimeric anti-FSTL1 antibody clone; variable regions SEQ ID NO: 787 (light), 789 (heavy) (antibody, V domains shown, mouse constant regions) VH: AVTLDESGGGLQTPGGGLSLVCKASGFTFSSVTMQWVRQAPGKGLEWVASICSGSSTYYGPAVKGRATISRDNGQNTVRLQLNNLRAEDTATYYCAKIVGRGRWSCTSAAYNIDAWGHGTEVIVSS VL: ASTQPSSVSANPGETVKITCSGGGNNYGWYQQKSPGSAPVTVIYYNNNRPSNIPSRFSGSTSGSTSTLTITGVQAEDEAVYYCGSYEGSTDSGIFGAGTTLTVL | higher inhibitory activity and substantially completely inhibited the action of FSTL1 | – | stronger inhibitory activity was confirmed in the order of clone #7-34, #5-2, 46-55, and #8-7; also recorded: higher inhibitory activity was confirmed in the order of #7-34, #5-2, #6-55, and #8-7; also recorded: stronger inhibitory activity was confirmed in the order of clone #7-34, #5-2, 96-55, and #8-7 | –
